According to paper PMC10099707:

Molecular target: HDAC4 (mouse (endogenous in hippocampal tissue)) (UniProt Q6NZM9)
Test: co-IP

Sequence of UniProt Q6NZM9 (Q6NZM9 whole entry): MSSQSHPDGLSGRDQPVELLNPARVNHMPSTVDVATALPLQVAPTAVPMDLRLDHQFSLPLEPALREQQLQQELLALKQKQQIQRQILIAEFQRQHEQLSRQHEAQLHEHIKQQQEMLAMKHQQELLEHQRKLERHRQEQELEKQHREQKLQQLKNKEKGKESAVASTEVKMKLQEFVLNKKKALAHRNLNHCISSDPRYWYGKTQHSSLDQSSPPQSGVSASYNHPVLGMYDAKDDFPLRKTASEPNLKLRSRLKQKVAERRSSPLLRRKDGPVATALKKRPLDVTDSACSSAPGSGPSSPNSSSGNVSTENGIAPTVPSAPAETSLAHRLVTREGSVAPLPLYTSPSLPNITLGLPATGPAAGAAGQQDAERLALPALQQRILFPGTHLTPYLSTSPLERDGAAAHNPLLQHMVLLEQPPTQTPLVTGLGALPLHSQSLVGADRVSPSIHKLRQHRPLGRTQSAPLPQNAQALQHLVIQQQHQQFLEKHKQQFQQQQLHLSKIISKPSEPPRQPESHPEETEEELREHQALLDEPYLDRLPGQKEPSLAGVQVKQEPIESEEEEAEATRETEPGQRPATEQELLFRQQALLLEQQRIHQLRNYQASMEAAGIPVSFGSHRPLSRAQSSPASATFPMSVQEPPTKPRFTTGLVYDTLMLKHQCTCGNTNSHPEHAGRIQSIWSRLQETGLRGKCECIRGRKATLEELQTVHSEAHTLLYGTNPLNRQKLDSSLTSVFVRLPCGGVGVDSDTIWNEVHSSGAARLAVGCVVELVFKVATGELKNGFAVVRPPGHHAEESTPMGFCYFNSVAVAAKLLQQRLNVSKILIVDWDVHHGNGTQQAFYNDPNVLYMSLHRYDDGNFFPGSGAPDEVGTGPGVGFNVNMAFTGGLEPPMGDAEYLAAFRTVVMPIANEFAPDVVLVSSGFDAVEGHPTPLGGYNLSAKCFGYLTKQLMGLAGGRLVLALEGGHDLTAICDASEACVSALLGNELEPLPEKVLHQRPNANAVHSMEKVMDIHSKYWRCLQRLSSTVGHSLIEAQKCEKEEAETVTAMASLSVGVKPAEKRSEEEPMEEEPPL

## Ca2+/calmodulin‐dependent protein kinase II (CaMKII) (from UniProt P11798 1-478) (enzyme)
  fold change AD vs WT of the co-IP band ratio CaMKII/HDAC4 (fold (AD vs WT)): 0.61
